Test results reported in publication PMC8534798, “Foxd4l1.1 Negatively Regulates Chordin Transcription in Neuroectoderm of Xenopus Gastrula” (Cells, 2021).

Tests used:
[1] = target: HA-Smad2 (wild type) (human, UniProt Q15796 1-467); experiment: cell-based or functional assay
[2] = target: HA-Smad3 (wild type) (human, UniProt P84022 1-425); experiment: cell-based or functional assay
Chain of HA-Smad3 (wild type) (P84022 whole entry): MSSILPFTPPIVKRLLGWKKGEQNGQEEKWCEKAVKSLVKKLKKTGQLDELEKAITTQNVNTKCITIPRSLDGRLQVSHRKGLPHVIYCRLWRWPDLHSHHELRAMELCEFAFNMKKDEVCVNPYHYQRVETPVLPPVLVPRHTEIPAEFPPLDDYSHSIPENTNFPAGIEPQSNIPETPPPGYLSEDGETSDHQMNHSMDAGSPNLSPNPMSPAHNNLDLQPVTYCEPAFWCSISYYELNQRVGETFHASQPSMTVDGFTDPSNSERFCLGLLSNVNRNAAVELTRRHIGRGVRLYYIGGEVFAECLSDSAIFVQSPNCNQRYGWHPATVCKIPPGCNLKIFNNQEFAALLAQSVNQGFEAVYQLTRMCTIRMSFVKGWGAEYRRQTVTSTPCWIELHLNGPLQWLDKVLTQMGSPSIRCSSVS

Chain of HA-Smad2 (wild type) (Q15796 whole entry): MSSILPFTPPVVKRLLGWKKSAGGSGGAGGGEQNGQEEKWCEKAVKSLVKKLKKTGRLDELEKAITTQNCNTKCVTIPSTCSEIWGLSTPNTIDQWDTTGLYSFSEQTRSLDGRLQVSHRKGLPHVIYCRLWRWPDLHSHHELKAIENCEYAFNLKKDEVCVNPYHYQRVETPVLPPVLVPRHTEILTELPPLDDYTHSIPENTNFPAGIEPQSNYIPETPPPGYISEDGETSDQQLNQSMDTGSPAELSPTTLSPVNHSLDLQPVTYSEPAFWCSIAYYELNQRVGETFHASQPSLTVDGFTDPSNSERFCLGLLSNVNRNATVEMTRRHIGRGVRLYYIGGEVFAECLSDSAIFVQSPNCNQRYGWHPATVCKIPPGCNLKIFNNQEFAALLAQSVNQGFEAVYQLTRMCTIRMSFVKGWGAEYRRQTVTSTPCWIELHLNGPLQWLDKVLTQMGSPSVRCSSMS

ChIP-qPCR: occupancy of HA-Smad2 on the AREs of the chrd promoter without and with co-injected Flag-Foxd4l1.1 (fold enrichment) [1]: 7.3 fold
ChIP-qPCR: occupancy of HA-Smad3 on the AREs of the chrd promoter without and with co-injected Flag-Foxd4l1.1 (fold enrichment) [2]: 4.02 fold
B1: Flag-Foxd4l1.1 (natural protein, Xenopus, UniProt Q9PRJ8 1-352, looked up)
chain: MSFSQESGAHHHPQDYAGLSDEEDEIDILGEDDPCSLKSHFYLQPTHSVMGDSEMLSPSKLSCTESESDSSGESEGGTSKDSSTTPTGSKAKRTLVKPPYSYIALITMAILQSPHKKLTLSGICDFISSKFPYYKDKFPAWQNSIRHNLSLNDCFIKIPREPGNPGKGNYWTLDPASEDMFDNGSFLRRRKRFKRHQQEFFKDGLMMYNSLPYYRPYSAIQPQPVLQQTSLTCMAIPETLPMSTHLAPYPDIKRKVSYPAQGVHRGFKAQDADNHPNNSQSKCSFSIENIMRKPKEPEPNIQSFNSHWNYNHVFQRPSSCLLPAVLNLSTGPLLANTQGARQYNLIQFPGCY
